Data on one substance can be found in publication doi:10.1101/2022.10.19.512861.

The target in this experiment is MreB from Geobacillus stearothermophilus (MreB^Gs), wild type, His6-tagged (Geobacillus stearothermophilus ATCC 7953). Briefly: negative stain electron microscopy of polymerization.

“MreB from Geobacillus stearothermophilus (MreB^Gs), wild type, His6-tagged (natural protein)” had a concentration of MreB above which polymers were observed of 0.55 µM.
